Where no end group is shown, it is not given here. [ ]: non-standard residue; d: D form. pS = N[C@@H](COP(=O)(O)O)C(=O)O
Molecular target: T1, 15N-labeled PIN1 WW domain (PIN1 residues 1-50) (UniProt Q13526 1-50)
T1 construct: PIN1 residues 1-50 (WW domain); The methods describe a pET28 His6-TEV construct for PIN1; also called 15N-PIN1-WW; source: expressed and purified, 15N-labeled
Assay: NMR titration; 1H-15N HSQC of 15N-PIN1-WW at constant concentration, peptide serially diluted (reverse titration), 25 °C, 600 MHz; fit to a simple bimolecular model; apparent
Settings: both partners purified

T1 sequence (Q13526 1-50): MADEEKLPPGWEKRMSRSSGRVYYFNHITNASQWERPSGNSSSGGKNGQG

B1: IRAK-M-pS110 peptide (IRAK-M residues 103-124 with Ser110 phosphorylated) (peptide)
peptide: TNYGAVL[pS]PSEKSYQEGGFPNI
notes: IRAK-M (IRAK3) residues 103-124; also called IRAK-M phosphopeptide; pIRAK-M-pS110; source: synthetic peptide (Tufts University Core Facility)
  Kd: 60.7 µM
